# Measured values: article PMC2813981
# pKd: −log10 of the molar value.
# Assays:
# [1] = biological target: fibrinogen fragment D (human); assay: SPR
# [2] = biological target: fibrin matrix (thrombin- and factor XIIIa-treated human fibrinogen) (human) (UniProt P02671); assay: confocal microscopy of perfused fibrin matrices
# UniProt P02671, sequence (P02671 36-866, chain 1 of 3): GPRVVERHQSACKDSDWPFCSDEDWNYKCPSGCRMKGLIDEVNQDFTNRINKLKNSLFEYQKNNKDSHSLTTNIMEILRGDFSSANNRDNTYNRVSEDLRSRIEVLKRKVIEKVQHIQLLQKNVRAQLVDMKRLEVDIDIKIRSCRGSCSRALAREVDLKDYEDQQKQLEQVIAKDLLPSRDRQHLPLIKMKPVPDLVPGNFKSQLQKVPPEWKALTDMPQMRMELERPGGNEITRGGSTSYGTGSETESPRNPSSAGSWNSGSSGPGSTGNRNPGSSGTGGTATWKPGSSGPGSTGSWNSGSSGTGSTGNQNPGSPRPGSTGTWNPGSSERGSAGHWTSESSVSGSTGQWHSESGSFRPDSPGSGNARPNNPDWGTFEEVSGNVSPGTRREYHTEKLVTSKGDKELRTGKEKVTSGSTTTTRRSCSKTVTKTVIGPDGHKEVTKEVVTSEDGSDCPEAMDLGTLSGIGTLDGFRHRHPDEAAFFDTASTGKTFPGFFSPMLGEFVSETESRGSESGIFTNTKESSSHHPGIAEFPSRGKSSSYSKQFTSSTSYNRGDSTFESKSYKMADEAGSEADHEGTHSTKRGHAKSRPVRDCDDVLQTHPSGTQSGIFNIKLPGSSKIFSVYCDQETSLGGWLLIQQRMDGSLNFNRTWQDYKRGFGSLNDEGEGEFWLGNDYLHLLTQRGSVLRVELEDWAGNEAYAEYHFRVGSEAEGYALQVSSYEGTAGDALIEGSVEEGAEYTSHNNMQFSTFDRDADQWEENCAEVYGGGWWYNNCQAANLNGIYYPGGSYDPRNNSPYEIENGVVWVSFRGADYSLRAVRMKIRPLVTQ
# UniProt P02671, sequence (P02675 45-491, chain 2 of 3, further chain): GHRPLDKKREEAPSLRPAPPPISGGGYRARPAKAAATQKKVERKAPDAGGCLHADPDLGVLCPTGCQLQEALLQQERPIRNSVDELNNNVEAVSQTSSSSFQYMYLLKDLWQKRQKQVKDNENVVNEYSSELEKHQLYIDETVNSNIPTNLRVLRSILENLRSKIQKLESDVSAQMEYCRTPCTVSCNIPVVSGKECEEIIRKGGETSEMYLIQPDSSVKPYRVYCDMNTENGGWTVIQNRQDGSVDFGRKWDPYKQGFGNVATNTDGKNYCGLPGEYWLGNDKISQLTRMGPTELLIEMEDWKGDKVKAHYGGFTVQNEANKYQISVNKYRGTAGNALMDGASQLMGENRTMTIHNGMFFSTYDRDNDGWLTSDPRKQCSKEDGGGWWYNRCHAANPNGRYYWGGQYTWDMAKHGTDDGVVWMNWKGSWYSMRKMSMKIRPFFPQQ
# UniProt P02671, sequence (P02679 27-453, chain 3 of 3, further chain): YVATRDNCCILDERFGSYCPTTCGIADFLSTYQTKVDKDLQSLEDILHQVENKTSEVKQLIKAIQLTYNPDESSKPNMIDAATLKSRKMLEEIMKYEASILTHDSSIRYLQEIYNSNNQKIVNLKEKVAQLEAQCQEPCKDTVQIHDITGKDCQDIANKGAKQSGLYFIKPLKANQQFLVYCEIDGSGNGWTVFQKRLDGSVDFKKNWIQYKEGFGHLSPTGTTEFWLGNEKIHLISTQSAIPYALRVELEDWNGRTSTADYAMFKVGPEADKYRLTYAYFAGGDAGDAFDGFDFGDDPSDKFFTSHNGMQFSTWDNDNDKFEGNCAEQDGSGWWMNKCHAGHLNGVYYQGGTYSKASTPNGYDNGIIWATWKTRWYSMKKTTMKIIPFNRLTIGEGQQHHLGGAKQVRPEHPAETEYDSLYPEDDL
KD with a 10-molar excess of soluble GPRP peptide [1],pKd [1],percent of fibrin matrix still retaining the conjugate after perfusion [2],Substance
43 µM,5.52,,GPRP-FnIII9-10 (designed binder)
,,12.8%,GPRP-FnIII9-10-AF633 (designed binder)
,3.90,,GPRV-FnIII9-10 (designed binder)
